Measured values published in the nanobody polyreactivity screen of Harvey et al. (2022).

Test: yeast display, Sf9 membrane polyspecificity reagent, FACS + sequencing; frameworks hold sequencing errors
In short: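 Nanobodies from a synthetic yeast display library (Saccharomyces cerevisiae BJ5465), induced 36–48 hours with galactose, were stained 1 hour at 4 °C with 10% biotinylated, detergent-solubilized Sf9 membrane reagent, enriched on streptavidin microbeads, then FACS-sorted. Anti-HA (expression) and streptavidin (reagent binding) fluorescence set low and high (top ~1%) gates. Polyreactivity labels come from the gate of origin. Genes were colony-PCR amplified, MiSeq 2 × 250 sequenced and filtered by CDR length.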

| Sequence | polyreactivity (PSR sort gate) |
| --- | --- |
| HVQLVESGGGLVQAGGSLRLSCAPSGRTFIGYAMGWYRQAPGKERELVAAITSRGRTNYADSVKGRFTISRDNAKNTVYLQMNSLNPEDTAVYYCAARTYGYWYYGFRGDYWGQGTQVTVSS | high polyreactivity |
| HVQLVESGGGLVQAGGSLRLSCGASGRIFRGNVMGWYRQAPGTERELVAAISWSGGSSYADAVKGRFSISRDNAKNTVYLQMNRLKPDDTAVYYWNADSLDGPKFDYWGQGTQVTVSS | low polyreactivity |
| HVQLVESGGGLVQAGGSLRLSFAASGFTFRSYAMGWYRKAPGQERELVAAINWRGDSTYYADSVKGRFTISRDNAKNTVYLQMNSLNPEDTAVYYCNAYSGYIRRTASDYWGQGTQVTVSS | high polyreactivity |
| HVQLVESGGGLVQAGRSLRFSCAASGSIFLYNAMGWYRQAPGKERELVAAISKSGGSTYYADSVKGRFTISRDNAKNTVYLQMNSLKPEDTAVYYCAAGYGRRIRYCSEYDYWGQGTQVTVSS | low polyreactivity |
| HVQLVESGGGLVQAGVSLRLSCAASGRIFVLYTRGWYRQAPGKDRELVAAISRRGGNTNYADSVKGRFTISRDNAMNTVYLQMNSLKPEDTAVYYCNARWTGARYYYYPMDYWGQGTQVTVSS | high polyreactivity |
| HVQQQESGGGLVQAGGSLRLSCAASGNISYSRNMGWYRQAPGKERELVAAIDRGAITYYADSVQGRFTISRDNAKNTVYLQIYSLKPEDTAVYYCAAEYHDRWDHRYWGQGTQVTVSS | high polyreactivity |
| HVQVVESGGGLVQAGGSLRLSCAASGRIFLLYTMGWYRQAPGKERELVAAISSDDSTNYADSVKGRFTISRDNAKNTVYIQMNSLKPEDTAVYYCAAGRKSYYRIYSEYVEFDYWGQGTQVTVSS | low polyreactivity |
| HVRLQESGGGLVQAGGSLRQSCAASGAISPYYDMGWYRLAPGKEREFVASIAHGGTTYYADSVKGRFTTSRDNAKNTVYLQMNSLKPEDTAVYYCAVAYDVWHSHIYRGQGTQVTVSS | high polyreactivity |
| HVRLQESGGGLVQAGGSLRQSCAASGAISPYYDMGWYRLAPGKEREFVASIAHGGTTYYADSVKGRFTTSRDNAKYNVYLRMNRLKPEDTAVYFCAAPKRYLGDYWGQGTQVTVSS | high polyreactivity |
| IIPAGGSLRLSCAASGATLIGYTMGWYRQAPGKERELVDAITWGAGSTNYADSVKGRFTISRDNAKNTVYLQMNSLKPEDTAVYDCNADSISDPRYLGEYDYWGQGTQVTVSS | low polyreactivity |
| IIQAGGSLRLSCAASGRTFSGYAMGWYRQAPGKERELIADITSGGSTYYADSVKGRFTISRDNAKNTVYLQMNSLKPEDTAVYYCAAERQIRSFWSSRTYEFGYWGQGTQVTVSS | low polyreactivity |
| IIQAGGSLRLSCAASGRTFSGYAMGWYRQAPGKERELIDDITSGGSTYYADSVKGRFTISRDNAKNTVYIQMNSLKPEDTAVYYCAAERHIRSFSSSRTYEFGYWGQGTQVTVSS | low polyreactivity |
| KGQLVESGGGLVQAGGSLRLTCAASGSNFRFYAMGWYRQAPGKERELVAAITYRSGITYADSVKGRFTISRDNAKNTVYVQMNSLKPEDTAVYYCAARARRYTDEYDYWGQGSQVTVSS | low polyreactivity |
| KGQLVESGGGLVQEGGSLRLSCAASGNTFVNNHMVWYRQAPGEERELVAAISRRAGSTYYADSVKGRFTISRENAKNTVYIQKNSLKPEENAVYYCAARGSRYYYVQGASKYDYWGQGTQVTVSS | high polyreactivity |
| KLQLVESGGGLVQAGGSLRLSCASSGSIFVWYAMGWYIQAPGKDRELVARITSGGRTNYADSVKGRFTISRDNAKNTVYLQMNSLKPEDTAVFYCAAGRVSWSPYYYWGQGTQVTVSS | high polyreactivity |
| KVHLVESGGGLVQAGGSLRLSSAAYGRTFYNNAMGWYIQAPGKERELVAAISGRGGSTYYADSLKGRFTISRDNAKNTVYVQMNILKPEDTAVYYCAATVKYSPIYDYWGQGTQVSVSS | high polyreactivity |
| KVQHVESGGGLVQAGGSLRLSCAASGLIFYRYAMGWYRQAPGKERELVAAISRSGSSTYYADSVKGRFTISRDNAKNTVYLQMNSLKPEDTAVYYCNAGYGWIWDDRGYWGQGSQVTVSS | high polyreactivity |
| KVQIVESGGGLVQAGRSLRLSCAASGLTFFGNAMGWYRQAPGKERDLVATISSCGGTSYADSVKGRFTISRDNAKNTVYLQMNSLKPEDTEVYYCAADIVEEFDYWGLGTQVTVSS | low polyreactivity |
| KVQLVESGAGFVQAGGSLRLSCAASGFIFPVYTMGWYRQAPGKERELVAAITQIGGSTHYADSVKGRFTISRDNAKNTVYLQMNSLKPEYTAVYYCNAVPHPYDWGQGTQVTLSS | low polyreactivity |
| KVQLVESGAGLVQAGGSLRLSCAASGSTFAQYAMGWYRQAPGKERELVAAISRGGGSTYYADSVKGRFTISRDTAKNTVYLQMHSLKPEDTAVYYCAADPRYRVTLGFDYWGQGTQVTVSS | high polyreactivity |
| KVQLVESGAGLVQAGGSLRLSCAAYGSIFVGYHMGWYRQAPGKERELVAGITGAGSTNYADSVKGRFTISRENAKNTVYLQMNSLKPEDTAVYYCAADYDTPQGTKYYYWGQGTKVTVSS | low polyreactivity |
| KVQLVESGAGLVQAGGSLRLTCAASGFTFAYYAMGWYRPAPGKERELVAAISWSGGITYYADSVKGRFTISRDNAKNTVYLQMNSLKPEDTAVDYCAAETFRGSYYDEDYDYWGQGTQVTVSS | low polyreactivity |

| Sequence | polyreactivity (PSR sort gate) |
| --- | --- |
| KVQLVESGGGLFQAGGSLSLSCAATGSSYGGYVMGWYRQAPGKERELVASISGNGASTTYADSVKGRFTISRDNAKNTVYLQMNSLKQEDTAVYYCNARDWYIVWYEYWGQGTQVTVSS | low polyreactivity |
| KVQLVESGGGLVHAGGILRLISAASGSIFTYYYMGWYRQAPGKERELVAAISWNGGTTYYADSVKGRFTISRDNAKNTVYLQMNSLKPEDTAVYYCNKDGSYRYDYWGQGTQVTVSS | low polyreactivity |
| KVQLVESGGGLVQAGGSLRISCAASGITFVRNAMGWYRQAPGKERELVAAISSGGSTYYADSVKGSFTISRDNAKITVYLLMYSLKPEDNAVYFCAVLSSWRFSGYDYWGQGTQVNVSS | low polyreactivity |
| KVQLVESGGGLVQAGGSLRLSCAASGFIFGAYAMGWYRQAPGKERELVPSITWRGGSTYYADSVKGRFTISRDNAKNTVYLQMNSLKPEDTAVYYCAARVYLYNWQYFAYRAVDYWGQGTQVTVSS | high polyreactivity |
| KVQLVESGGGLVQAGGSLRLSCAASGFIFLGYAMGWYRQAPGKEREFVAVISRSGVRTYYADSVKGRFTISRDNAKNTVYLQMNSLKPEDTAVYYCAARYYSTDLEYWGQGTQVTVSS | high polyreactivity |
| KVQLVESGGGLVQAGGSLRLSCAASGFTFLRYGMGGYRQAPGKERELVASITSGGGTNYADSVKGRFTISRDNAKNTVYLQLNSLKPEDSAVYYCNAVFFYHGTKPAFISHDYWGQGTQVTVSS | low polyreactivity |
| KVQLVESGGGLVQAGGSLRLSCAASGFTFYWYDMGWYRQAPGKERELVATISTGGGTNYADSVKGRFTISRDNAKNTVYLQMKSLKPEDTAVYYCAADGSAGYQWGYDFEGDYWGQGTQVTVSS | high polyreactivity |
| KVQLVESGGGLVQAGGSLRLSCAASGIIFGRYAMGWYRQAPGKERELVATISRSGGTTYYADSVKGRFTISRDNAKNTVYLQMNSLKPEDTAVYYCAARWTSRYDYWGQGTQVTVSS | high polyreactivity |
| KVQLVESGGGLVQAGGSLRLSCAASGRIFYVNTMGWYRQAPGKERELVATITWGGDSTYYADSVKGRFTISRDNAKNTVYLQMNSLKPEDTAVYYCAADHHDIRLNTRRYDYWGQGTQVTVSS | low polyreactivity |
| KVQLVESGGGLVQAGGSLRLSCAASGRTFGDYAMGWSRQAPGKEREWVARISWDGGSTYYADSVKGRFTISRDNAKNTVYLQMNSLKPEDTAGYYCYSKSDYWGQGTQVTVSS | low polyreactivity |
| KVQLVESGGGLVQAGGSLRLSCAASGSIFGRYAMGWYIQAPGKERELVAGISSSGGRTYYADSVKGRFTISRDNAKNTVYLQMNSLKPEDTAVYYCAAVRSSWSYYYWGQGTQVTVSS | high polyreactivity |
| KVQLVESGGGLVQAGGSLRLSCAASGSTFFDNAKGWYRQAPGKERELVDAISWSGGSTYYADSVKGRFTISRDNAKNTVYFQMNSLKPEDTAVYYCAADWGHGTQVTVSS | low polyreactivity |
| KVQLVESGGGLVQAGGSLRLSCASSGSIFSGYAMGWYRQAPGKERELVAAISRGGSTNYADSVKGRFTISRDNAKNTVYLQMNSLKPEDTAVYYCARDTEGKYVGYGRFGYWGQGTQVTVSS | low polyreactivity |
| KVQLVESGGGLVQAGGSLRLTCAASGRIFPYYAMGWYRQAPGKERELVASIRYSAGNTYYADSVKGRFTISRDNAKNTVYLQMNSLKPEDTAVYYCWYTQNTLGNYWGQGTQVTVSS | low polyreactivity |
| KVQLVESGGGLVQSGGRLRLSCAASGSTFQIYTMGWYRQAPGKERELVAAITNGGGSTYYADSVKGRFTISRDNAKNTVYFQMISLKPEDTAVYYCAAEQSYPLIILYDYWGQGTQVTVSS | low polyreactivity |
| KVQLVETGRGLVQAGGSLRISCAASGSTFGANAMVWYIQAPGKERELVAAITVRGGSTYYADSVKCRFTISRDNAKNNVYLQMISLKPEETAVYYCAARWACSTNSYYYWGQGTQVTVSS | high polyreactivity |
| LGQLVESGGGLVQAGGSLRLSCAASGFIFYYYDMGLYRQAPGKESELVATISRGGSRYYADSVKGRFTISRDNAKNTVYLQMNSLKPEDTAVYYCAAYRSFGYRNWNRFDYWGQGTQVTVSS | high polyreactivity |
| LVHLQESGGGLVHAGGGLRLSCAASGNIFTYVIMGWYRQPPVKERELVAAITYGTITNYADSVKGPFTISRDNAKITVDLQMKCLKPEDSAEYHCAVQSPRIEPRLYYWGQGTEVTVSS | high polyreactivity |
| LVKLQESGGGLVQAGGSLRLSCAASGTISPGGYMGRYRQAPGKEGELVASINVGGSTNYADSVKGRFTISRDNAKNTVYLQMNSLIPEDNAVYYCAVWGRNRLQLSYWGQGTQVTVSS | low polyreactivity |
| LVQLQESGGGLVQAGGSLRLSCAASGTISPGGYMGWYRQAPGKERELVASINVGGSTNYADSVKGRFTISRDNAKNTVYLQMNSLKPEDTAVYYCAVWGRNRLQLSYWGQGTQVTVSS | low polyreactivity |
| LVQLQESGGGLVQAGGSLRLSCAASGTISPGGYMGWYRQAPGKERELVASINVGGSTNYADSVKGRFTISRDNAKNTVYLQRNSLKPEDNAVYYCAVWGRNRLQLSYWGQGTQVTVSS | low polyreactivity |
